Test results from the DeepSol protein solubility set.

Assay: soluble on expression in E. coli; label from the status in PepcDB or PDB records

Sequence | soluble on expression in E. coli
MAKSLTFSTFSPNNTLKKNVIPIVLLHGWGLNSGVWQPLLELFHRNDESIYQLITIDLPGFGINSAVDIKPYSLANICHHIEQVIDQPAIYLGWSLGGLIATEMSLKYPEKVLASITVASSPYFVEQPTDNWPGIKENVLESFHKQLAQDTAKTISGFLKIQAMGSPHIRQDLKLITQLVMAHTLPSQQTLADSLALLSNSDLRLHLSKIKQPLLRLYGHNDSLVPKEVMEKISYLAPNSDQHLFADASHAPFISHLDDFYQVLVVWLDSHFNLEHHHHHH | not soluble
MSLSDTIPVFDGHNDFLLRLLRNPANRETIWLKGDGTGHLDLPRMKEGGFAGGFFAIYVPSPQAHDAAHFEAMMDAPPFELPLPPMIRAEQAQPVALAMAGHLLWMERAARGRFKVCRTAAEVRSCHADGIVSGIMHMEGAEAIGADLDALHLFHSLGLRSLGPVWSRPTVFGHGVPFRFPGSPDTGEGLTEAGRRLVAECNRLKIMLDLSHLNEKGFDDVARLSDAPLVATHSNAHAVTPSTRNLTDRQLAMIRESRGMVGLNFATSFLREDGRRSAEMGWEPVLRHLDHLIDRLGEDHVGMGSDFDGATIPQGIADVTGLPALQAAMRAHGYDEPLMRKLCHENWYGLLERTWGEGHHHHHH | soluble
MALINNRSKFSFFNKVRVLLKNILKPDESVEDVVDEHFRFTSSLSLDAPDGQIENLYQDEKDGKYHLTLFDNGLTGATGILPAAYTEWLIERKLRYNDDAPKAFMDMFDHRMYCLSYLAWQKMHLSGDENRRDNNVLNNVLLSLGGITPQTVSVTGLAYVAFYSQPVRSLAGLEQLLSLIHQIRVSINPFRGTFENTEPSEQGVLGNCLYTLGEGPVIGNVRWVVDSHFDVVLGPVDYRKAQELMPGKDSHYFIRQQIRSYIGDVLKFKIYVKIYPGNNDNQLNINNKLGFNLSLGSETENYKERCFCIF | not soluble
MELSEPLENYLKEIYEIELLKGYARVSDLILAFNVSPGTVSKALEKLEKIGLIERDNKKIKLTAEGKKIAEKLIRAHRLSERLLTDIIGLDWIRAHQLAHRLEHIWPEDVVDKIDELLGKPLTCPHGHPIPGREVKVNGIKLSEAECNKKYKVIMIIREEEWILSMADELNIKPGVEIKLIKKNENDFVIEIDNKKESIPKALAEEVLVSE | soluble
MSYQPPPNGQMPGYPQQQFNQQPQFQSNGFPPPAAPQKPAQVPGGFPPPHQQPNGQYQNGGLNGNSSHLAQSVNNMSIGARSTPSAQPPNPYQPAGYPGAPPQQLQQVQRQQTPQQFAAVPQSVQAPSATPAGPLQAMQQAPAPTPGIPQMNQGAHLPPQPHQIHQPTPLRPQIPGFPQAGGSPSSFQAGAPTSQNVQGYPGGPSSAPSAYPGAPQVPQAPNSFIPPGTGGFPPGQPTAGSFPPGPQVPGSYPSGPADIPQGPGMPRAFPPGASAPVAPGMPGAFPPGQGGPGMPGSFPPGAPGPGGPGMPGSFAPGAPGPGGPGGYPSGGPGMPGMQGGYPGGPPQQRQQRLDPNMMPSAVQVIDDDSSTRSGIFPTGYPNAELPPLVSTNSFAQDQGNCNPKFMRSTLYTAPQTNDILKASQIPLAVVISPFASLTEYEKEPPVVDLGPQGPIRCQRCKAYICPFMEFQDGGRSFRCPFCHARTSVEDAYFAHLDHTGRRTDIEMRPELCLGAYDLVATKQYCKNGIAPKEPAFIFMIDVSYNAISNGMLPILCQNLEKVLRNLPRESGQLESSMRIGLATFDQAVHFFDISSASPKMLVMSDVQEPFVPMVDGLLLPYNEALPGLRAALAEIPKLFSQSKTTETILQPVVQAGLDALKCADRAGKVILFSTVLPTYDAPGKLKSKNDRSLLGTDKEKNALVPQEDSYTKLGEQCVKSGVTVDLFLFPNAFIDVATIGQLSAVTGGSIFKFQYFSADKDGVRMLNELERHVSKKIAFDCMARVRTSTGIRPITFTGSFYMENSTDLELATLDESKAFITEIKHDDSLKDPASFIQTAVLYTSMTGQRRLRILNLCLPVTADYNQVYRLADPEALTAFMLKQAVQLNRDKGSSEMRESLSSRCAQFLATYREKCSEGAPLGQLILPESLKLMPLYVNSILKNDAISGGSEMTVDDKVWQMELIRGLRTENVMPLIYPRVMPISDLQINDTEEMKDLPKPVRASSEFLENSKAYIIDNGVILFVWVGSACPQTWVQDVFGVGATNQIDTESGTIPEKDNGHSRALRRAIQLLPRGIRERKTFVVVEKSGLEPWMKKFLVEDKAGPANMSYVDYLVDIHRKIRDLIS | not soluble
MGHHHHHHSHSMGVRSMATFVKTADVSILIDPGVSLAPKRYRLPPHRIEIERMNQKWEEIKEMMKKAEVAIITHYHYDHHDPNEVEIFSGKKLLLKHPTEKINRSQKGRAAYFLEQLKSVDVEIDYCDGKSYEFGNTVVELSKPVFHGADSRLGFVVEVYVEDGKSSFLFSSDVEGPNNEEQLAFMLEKSAEVVFIDGPMTYMLGYRFSQKSFESSVENLKRLIAEDVKTLVLDH | soluble
MAFEFKLPDIGEGIHEGEIVKWFVKPGDEVNEDDVLCEVQNDKAVVEIPSPVKGKVLEILVPEGTVATVGQTLITLDAPGYENMTFKGQEQEEAKKEEKTETVSKEEKVDAVAPNAPAAEAEAGPNRRVIAMPSVRKYAREKGVDIRLVQGTGKNGRVLKEDIDAFLAGGAKPAPAAAEEKAAPAAAKPATTEGEFPETREKMSGIRRAIAKAMVHSKHTAPHVTLMDEADVTKLVAHRKKFKAIAAEKGIKLTFLPYVVKALVSALREYPVLNTSIDDETEEIIQKHYYNIGIAADTDRGLLVPVIKHADRKPIFALAQEINELAEKARDGKLTPGEMKGASCTITNIGSAGGQWFTPVINHPEVAILGIGRIAEKPIVRDGEIVAAPMLALSLSFDHRMIDGATAQKALNHIKRLLSDPELLLMEA | soluble
MKYNNHDKIRDFIIIEAYMFRFKKKVKPEVDMTIKEFILLTYLFHQQENTLPFKKIVSDLCYKQSDLVQHIKVLVKHSYISKVRSKIDERNTYISISEEQREKIAERVTLFDQIIKQFNLADQSESQMIPKDSKEFLNLMMYTMYFKNIIKKHLTLSFVEFTILAIITSQNKNIVLLKDLIETIHHKYPQTVRALNNLKKQGYLIKERSTEDERKILIHMDDAQQDHAEQLLAQVNQLLADKDHLHLVFE | soluble
MTTLNKENIQKEFKERLSEDELLNCMRCGFCLPTCPTYIQSGYKESHSPRGRIALMKAVVDGLIEPDEDVENTLNVCLGCRACEPVCPSGVNYGHLLEEARDIINQNKKFSMPVRAVRKVVFEELFPHQNRMRTLTGLIGFYQRSGLQTITHKTGIMKLFPETLATMDLVLPKVPKMKAMKDRPTFLPAESTKKKQVAFFTGCLMDTMFLETNNATMKLLQLAGCDIVIPKTQSCCGALHGHAGEKSGAKELAKRNIKAFEDLNIDYIITNAGGCGAYLVDYDYLLKDDPQWAGRAKQFVSKIKDITAILVELDFHKRNDLRLTPQIITYQDSCHLRNVMRTSSEPRMLLEAIQGATYREMKDADRCCGSAGIYNIVHSELSMEFLDYKMDRVHETDATTIVTANPGCLLQMKLGIEREGLSHKMRGIHIVDLLLEAIETNS | not soluble
YIYRLGKEKEKNDRLIQSITINQMEARQNEEIINSTHSLRVFKHDIMNHMSILYKLVENGKNSDALKYIYQINNSIERTSYTISTGIIPIDCIMTAKLSKALDNNISIKHQIHFPANYNISDMDLCSLISNLLDNAIEANCKLDMTKRRLQIEIKPYNNMLLLFISNSSNGIYLYGGNGNLLTTKTSNKNEHGIGIKRINEIVKKYNGIIEFDPGTEIFSVSILFPLDN | not soluble
MGHHHHHHSHMFGCLVAGRLVQTAAQQVAEDKFVFDLPDYESINHVVVLMLGTIPFPEGMGGSVYFSYPDSMDASMALLGFVTNGKPSAIFKISGLKSGEGSQHPFGAMNIVRTPSVAQIGISVELLDSMAQQTPVGNAAVSSVDSFTQFTQKMLDNFYNFASSFAVSQAQMTPSPSEMFIPANVVLKWYENFQRRLAQNPLFWKT | not soluble
MTDSRTHLRLQIRQRRQSLSAFEQQTASQQLIHTFASLPEVTAAQRIALYLANDGELNTQPLIEWLWQQGKQVYLPVLHPFAKGHLLFLHYHTHTPMNKNRYGIAEPKLDQRLICPVRELDIIGTPLVAFDQSGQRLGMGGGYYDRTLAPWFKTQQGAMPIGLAHDCQQVEQLPTASWDIPLRKIVTPSKVWQWLEHHHHHH | not soluble
